From patent US20240335558A1, “ISOLATED POLYPEPTIDE AND USE THEREOF” (GLYCO-THERAPY BIOTECHNOLOGY CO., LTD., priority 2021, published 2024)

What was measured:
Assay type in all cases: biochemical
[1] = system: Trastuzumab-(GalNAzβ1,4)GlcNAc; assay: Transfer of GDP-FAmP4Biotin to Trastuzumab-(GalNAzβ1,4)GlcNAc by different HpFTs; conditions: donor GDP-FAmP4Biotin 1 mM, enzyme 0.5 mg/mL, 30° C., 3 h; FIG. 4
[2] = system: Trastuzumab-(GalNAzβ1,4)GlcNAc; assay: HpFT-2HR and HpFT-4HR transferring GDP-FAmP4Biotin or GDP-FAzP4Biotin to Trastuzumab-(GalNAzβ1,4)GlcNAc; conditions: enzyme 0.5 mg/mL, 6 h, FIG. 6(B)
Description: (§1) To 40 mM Tris-HCl (pH 7.5) buffer were added Trastuzumab-(Fucα1,6)(Galβ1,4)GlcNAc (2 mg/mL final), GDP-FAmP4Biotin (1 mM final), MgCl2 (20 mM final), and different HpFT enzymes (HpFT-4HR, HpFT-4HR(M4), HpFT-4HR(M7), HpFT-6HR, HpFT-3HR, HpFT-2HR, HpFT-1HR or HpFT-0HR) (0.5 mg/mL final) in sequence, and the resulting mixed solution was allowed to react at 30° C. for 1 h. Three parallels were set up for each group. After the reaction time point was reached, to the reaction solution was added 10 mM LacNA, and the reaction was terminated by a desalting column (Zeba™ Spin Desalting Columns/2 ml/40K, Thermo Fisher Scientific), and finally mass spectrometry was carried out and % of conversion was calculated. % of conversion=(MAR0 peak intensity*0+MAR1peak intensity*1+MAR2 peak intensity*2)/2* (MAR0 peak intensity+MAR1 peak intensity+MAR2 peak intensity)*100%.
To 40 mM Tris-HCl (pH 7.5) buffer were added Trastuzumab-(GalNAzβ1,4)GlcNAc (2 mg/mL final), GDP-FAmP4Biotin or GDP-FAzP4Biotin (1 mM final), MgCl2 (20 mM final), and HpFT-2HR or HpFT-4HR (0.5 mg/mL final) in sequence, and the resulting mixed solution was allowed to react at 30 t for 6 h. Three parallels were set up for each group. After the reaction time point was reached, to the reaction solution was added 10 mM LacNAc, and the reaction was terminated by a desalting column (Zeba™ Spin Desalting Columns/2 ml/40K, Thermo Fisher Scientific), and finally mass spectrometry was carried out and % of conversion was calculated. % of conversion was calculated according to Example 18.

Trastuzumab-G2F = assay: HpFT-2HR and HpFT-4HR transferring GDP-FAmSucMMAE to Trastuzumab-G2F; conditions: donor 1 mM, enzyme 0.5 mg/mL, 30° C., 3 h and 6 h; FIG. 7A
Description: To 40 mM Tris-HCl (pH 7.5) buffer were added Trastuzumab-G2F (2 mg/mL final), GDP-FAmP4Biotin (1 mM final), MgCl2 (20 mM final), and different HpFT enzymes (HpFT-4HR, HpFT-4HR(M4), HpFT-4HR(M7), HpFT-6HR, HpFT-3HR, HpFT-2HR, HpFT-1HR, or HpFT-0HR) (0.5 mg/mL final) in sequence, and the resulting mixed solution was allowed to react at 30° C. for 3 h. Three parallels were set up for each group. After the reaction time point was reached, to the reaction solution was added 10 mM LacNAc (N-acetyl-D-lactosamine), and the reaction was terminated by a desalting column (Zeba™ Spin Desalting Columns/2 ml/40K, Thermo Fisher Scientific), and finally mass spectrometry was carried out and % of conversion was calculated. % of conversion=(MAR0 peak intensity*0+MAR1peak intensity*1+MAR2 peak intensity*2+MAR3 peak intensity*3+MAR4 peak intensity*4)/4* (MAR0 peak intensity+MAR1 peak intensity+MAR2 peak intensity+MAR3 peak intensity+MAR4 peak intensity)*100%.
(§2) To 40 mM Tris-HCl (pH 7.5) buffer were added Trastuzumab-G2F or Durvalumab-G2F (2 mg/mL final), GDP-FAmSucMMAE (1 mM final), MgCl2 (20 mM final), and HpFT-2HR or HpFT-4HR (0.5 mg/mL final) in sequence, and the resulting mixed solution was allowed to react at 30° C. for 3 h and 6 h. Three parallels were set up for each group. […]

[3] = system: Trastuzumab-(Galβ1,4)GlcNAc; assay: HpFT-2HR and HpFT-4HR transferring GDP-FAmSucMMAE to Trastuzumab-(Galβ1,4)GlcNAc; conditions: donor 1 mM, enzyme 0.5 mg/mL, 30° C., 1 h and 2 h; FIG. 9
Description: as §1
as §2, with “added Trastuzumab-(Galβ1,4)GlcNAc” for “added Trastuzumab-G2F or Durvalumab-G2F”, “for 1” for “for 3”, “and 2” for “and 6”

B1: HpFT-2HR: H. pylori α-1,3-fucosyltransferase variant: catalytically active domain, two heptapeptide repeat sequences and C-terminus fused His tag (protein)
chain: MFQPLLDAFIESASIEKMVSKSPPPPLKIAVANWWGDEEIKEFKKSVLYFILSQRYAITLHQNPNESSDLVFSNPLGAARKILSYQNTKRVFYTGENESPNFNLFDYAIGFDELDFNDRYLRMPLYYAHLHYEAELVNDTTAPYKLKDNSLYALKKPSHHFKENHPNLCAVVNDESDLLKRGFASFVASNANAPMRNAFYDALNSIEPVTGGGSVRNTLGYKVGNKSEFLSQYKFNLCFENSQGYGYVTEKILDAYFSHTIPIYWGSPSVAKDFNPKSFVNVHDFNNFDEAIDYIKYLHTHPNAYLDMLYENPLNTLDGKAYFYQDLSFKKILDFFKTILENDTIYHNNPFIFYRDLHEPLISIDDLRVNYDDLRVNYLEHHHHHH
modifications: Catalytically active domain of Helicobacter pylori Alpha-(1,3)-fucosyltransferase (GenBank No.AAD07710.1) with 2 heptapeptide repeats and a C-terminal His tag
In the case of B1, the “catalytic activity among the HpFT variants” value [1] is reported as “relatively high catalytic activity”, the “catalytic activity as compared with HpFT-4HR (% of conversion)” value [1] is reported as “significantly improved catalytic activity” and the “activity in catalyzing the transfer of GDP-FAmP4Biotin relative to transfer of GDP-FAzP4Biotin” value ([2]; donor 1 mM) is reported as “significantly higher”. For the same molecule, the “activity in catalyzing the transfer of GDP-FAmP4Biotin, as compared with HpFT-4HR” value ([2]; donor GDP-FAmP4Biotin 1 mM) was “significantly improved activity”, the “activity in catalyzing the transfer of GDP-FAzP4Biotin, as compared with HpFT-4HR” value ([2]; donor GDP-FAzP4Biotin 1 mM) was “significantly improved activity” and the “activity in catalyzing the transfer of GDP-FAmSucMMAE, as compared with HpFT-4HR” value (Trastuzumab-G2F) was “significantly improved activity”. For the same molecule, the “activity in catalyzing the transfer of GDP-FAmSucMMAE, as compared with HpFT-4HR” value [3] was “significantly improved activity”.
